Data set [1] has as its target T1, endogenous HIF-1 in hypoxic Hep3B cells (Homo sapiens, UniProt Q16665;P27540 Q16665:1-826,P27540:2-789). Put plainly: cell_activity; pPGK2svcat, two copies, 1% vs 20% O2. The note with it: chain copies: heterodimer (inferred); 5' GATC overhang. On the procedure: (§1) Plasmids were purified by alkaline lysis and two rounds of cesium chloride density gradient centrifugation. Hep3B cells were transfected by electroporation with a Gene Pulser (Bio-Rad) at 260 V and 960 microfarads. Duplicate electroporations were pooled and split onto two 10 cm tissue culture dishes (Corning) containing 8 ml of media. Cells were allowed to recover for 24 h in a 5% CO_2 95% air incubator at 37° C., the media was replaced, and one set of duplicate plates was removed to a modular incubator chamber, which was flushed with 1% O_2, 5% CO_2, balance N_2, sealed, and placed at 37° C. Cells were harvested 72 h after transfection, and extracts were prepared for CAT and β-galactosidase activity.
(§2) To determine whether these HIF-1 binding sites were of functional importance, transient expression essays were performed using the reporter genes described above. Reporter plasmids were cotransfected into Hep3B cells with pSVβgal, which was included as a control for variation in transfection efficiency. Transfected cells were split among duplicate plates that were cultured in 1 or 20% O_2 for 48 h, CAT and β-galactosidase protein synthesized following transcription of reporter and control plasmids, respectively, were quantitated from cellular extracts. […]
(§3) HIF-1 binding site sequences from glycolytic genes were analyzed in the same assay. […]

For data set [2], the target named is T1, endogenous HIF-1 in hypoxic Hep3B cells. Put plainly: cell_activity; psvcatEPO2, two copies, 1% vs 20% O2; one copy 4.9-fold. The note with it: chain copies: heterodimer (inferred). From the text:
Oligonucleotides were cloned into the BglII and BamHI sites located 5' and 3' to the transcription unit, respectively. Plasmids pNMHcat and pHcat (Concordet et al. (1991) Nucleic Acids Res. 19:4173–4180), containing human aldolase A gene sequences fused directly to CAT coding sequences, were provided by P. Maire. pSVβgal (Promega) contained bacterial lacZ coding sequences driven by the SV40 early region promoter and enhancer. Plasmids were purified by alkaline lysis and two rounds of cesium chloride density gradient centrifugation. Hep3B cells were transfected by electroporation with a Gene Pulser (Bio-Rad) at 260 V and 960 microfarads. Duplicate electroporations were pooled and split onto two 10 cm tissue culture dishes (Corning) containing 8 ml of media. […]
To determine whether these HIF-1 binding sites were of functional importance, transient expression essays were performed using the reporter genes described above. […] Transfected cells were split among duplicate plates that were cultured in 1 or 20% O_2 for 48 h, CAT and β-galactosidase protein synthesized following transcription of reporter and control plasmids, respectively, were quantitated from cellular extracts. […]

The target in data set [3] is T2, HIF-1 (HIF-1alpha/HIF-1beta (ARNT) heterodimer), affinity-purified (Homo sapiens, UniProt Q16665;P27540 Q16665:1-826,P27540:2-789). Put plainly: EMSA; competed by unlabeled W18 but not M18; buffer Z-100. The note with it: tags: none; from CoCl2-treated HeLa S3 cells or hypoxic Hep3B cells; chain copies: heterodimer (inferred), higher-order form also seen; 5' gatc overhangs. The method, then:
Nuclear extracts were fractionated by DEAE-Sepharose chromatography, and fractions containing HIF-1 activity were applied to a W18 DNA affinity column. 5 ug of protein were incubated with 0.1 ug of calf thymus DNA for gel shift analysis of crude nuclear extract (Crude NE, lane 1) and HIF-1 active fractions from DEAE-Sepharose columns (DEAE, lane 2). For fractions from the W18 column (lanes 3–13), 1 ul aliquots were incubated with 5 ng of calf thymus DNA. The positions of the two HIF-1 bands, constitutive activity (C), nonspecific activity (NS), and free probe (F) are indicated. FT, flowthrough, 0.25M, 0.5M, 1M, and 2M are fractions eluted with indicated concentration of KCl in buffer Z. Figure 3B: FIG. 3B is an autoradiograph showing sequence-specific DNA binding of the partially purified fractions described in the legend to FIG. 3A. 5 ug aliquots of fractions from the DEAE-Sepharose column were incubated with W18 probe in the presence of no competitor (lane 1), 10-fold (lanes 2 and 5), 50-fold (lanes 3 and 6), or 250-fold (lanes 4 and 7) molar excess of unlabeled W18 (W, lanes 2–4) or M18 (M, lanes 5–7) oligonucleotide.
Since HIF-1 DNA binding activity from hypoxic Hep3B cells and CoCl_2-treated HeLa cells are indistinguishable (Example 1), HeLa S3 cells treated with 125 uM CoCl_2 were used as starting material for the large scale purification of HIF-1. […]
For orientation: Mobility shift assays separate free from complexed probe on a gel.

Data set [4] has as its target T1, endogenous HIF-1 in hypoxic Hep3B cells. The data set can be described thus: cell_activity; pPFKL3svcat, three copies, 1% vs 20% O2. The note with it: chain copies: heterodimer (inferred); 5' GATC overhang. On the procedure: as §1, §2, §3
The target of data set [5] is T2, HIF-1 (HIF-1alpha/HIF-1beta (ARNT) …). The data set can be described thus: competition; up to 250-fold excess M18 does not compete; HIF-1 flows through M18 column. The conditions noted are these: tags: none; from CoCl2-treated HeLa S3 cells or hypoxic Hep3B cells; chain copies: heterodimer (inferred), higher-order form also seen; 5' gatc overhangs.

This note sets out measurements from patent US6222018, “Hypoxia inducible factor-1 and method of use” (The Johns Hopkins University School of Medicine).

T1 sequence (Q16665 whole entry, chain 1 of 2): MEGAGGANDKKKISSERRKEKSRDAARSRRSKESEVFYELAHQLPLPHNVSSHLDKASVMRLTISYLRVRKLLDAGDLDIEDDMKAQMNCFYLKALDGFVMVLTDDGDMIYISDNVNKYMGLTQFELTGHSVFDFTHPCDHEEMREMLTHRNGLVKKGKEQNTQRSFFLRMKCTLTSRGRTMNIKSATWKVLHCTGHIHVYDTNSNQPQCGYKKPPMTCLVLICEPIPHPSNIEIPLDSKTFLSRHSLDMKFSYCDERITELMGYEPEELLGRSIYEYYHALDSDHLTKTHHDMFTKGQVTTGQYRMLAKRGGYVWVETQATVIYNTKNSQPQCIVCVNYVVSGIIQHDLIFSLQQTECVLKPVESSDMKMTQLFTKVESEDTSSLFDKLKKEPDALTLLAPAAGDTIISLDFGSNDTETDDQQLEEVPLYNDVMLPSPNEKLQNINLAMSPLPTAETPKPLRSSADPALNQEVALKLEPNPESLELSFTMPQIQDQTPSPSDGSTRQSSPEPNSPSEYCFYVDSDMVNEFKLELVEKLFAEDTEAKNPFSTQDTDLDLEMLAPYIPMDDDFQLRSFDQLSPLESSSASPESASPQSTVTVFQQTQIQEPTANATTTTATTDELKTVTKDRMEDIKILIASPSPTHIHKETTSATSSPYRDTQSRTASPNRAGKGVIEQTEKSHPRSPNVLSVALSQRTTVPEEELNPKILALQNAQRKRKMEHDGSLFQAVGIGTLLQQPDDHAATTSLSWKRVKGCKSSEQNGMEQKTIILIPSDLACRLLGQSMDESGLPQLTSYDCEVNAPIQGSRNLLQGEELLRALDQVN
T1 sequence (P27540 2-789, chain 2 of 2): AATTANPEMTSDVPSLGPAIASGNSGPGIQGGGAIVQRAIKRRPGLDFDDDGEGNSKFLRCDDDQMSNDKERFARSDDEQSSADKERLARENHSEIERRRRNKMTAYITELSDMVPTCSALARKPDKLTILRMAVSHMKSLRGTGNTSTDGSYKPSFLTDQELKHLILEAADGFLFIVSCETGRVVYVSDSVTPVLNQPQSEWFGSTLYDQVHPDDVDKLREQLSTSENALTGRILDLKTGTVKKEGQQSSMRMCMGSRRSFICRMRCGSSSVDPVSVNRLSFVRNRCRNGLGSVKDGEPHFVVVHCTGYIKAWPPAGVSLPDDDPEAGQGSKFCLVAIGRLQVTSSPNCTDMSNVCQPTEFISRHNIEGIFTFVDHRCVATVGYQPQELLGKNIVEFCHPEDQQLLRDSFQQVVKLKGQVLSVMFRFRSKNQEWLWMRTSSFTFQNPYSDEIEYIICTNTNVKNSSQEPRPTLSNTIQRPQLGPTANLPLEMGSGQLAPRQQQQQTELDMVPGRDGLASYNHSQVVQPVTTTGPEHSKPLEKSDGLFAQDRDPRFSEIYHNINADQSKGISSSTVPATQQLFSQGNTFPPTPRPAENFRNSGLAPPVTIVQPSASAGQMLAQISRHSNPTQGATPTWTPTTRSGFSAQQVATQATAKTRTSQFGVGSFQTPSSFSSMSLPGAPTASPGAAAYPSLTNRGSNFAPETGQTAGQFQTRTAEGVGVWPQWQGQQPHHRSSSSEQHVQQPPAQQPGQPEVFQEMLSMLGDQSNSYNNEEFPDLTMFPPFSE
T2 sequence (Q16665 whole entry, chain 1 of 2): as the sequence (Q16665 whole entry, chain 1 of 2) above
T2 sequence (P27540 2-789, chain 2 of 2): as the sequence (P27540 2-789, chain 2 of 2) above

B1: hPGK1 5'-FS -172/-194 (dsDNA)
DNA 1: GATCGTGAGACGTGCGGCTTCCGTTTG
DNA 2: CAAACGGAAGCCGCACGTCTCACGATC
In data set [1], B1 returned an activity of 5.6 fold induction.

B2: hEPO 3'-FS +3065/+3097 (dsDNA)
DNA 1: GCCCTACGTGCTGTCTCACACAGCCTGTCTGA
DNA 2: TCAGACAGGCTGTGTGAGACAGCACGTAGGGC
B2: in data set [2], the activity was found to be 17 fold induction.

B3: W18 (hEPO 3'-FS nt 1-18) (dsDNA)
DNA 1: GATCGCCCTACGTGCTGTCTCA
DNA 2: GATCTGAGACAGCACGTAGGGC
With B3, the binding result in data set [3] was “binds”.

B4: mPFKL IVS-1 +336/+361 (dsDNA)
DNA 1: GATCCCGGGTAGCTGGCGTACGTGCTGCAG
DNA 2: CTGCAGCACGTACGCCAGCTACCCGGGATC
B4: the activity in data set [4] turned out to be 47 fold induction.

B5: M18 (dsDNA)
DNA 1: GATCGCCCTAAAAGCTGTCTCA
DNA 2: GATCTGAGACAGCTTTTAGGGC
Turning to B5, the binding result in data set [5] is “no binding”.
